# According to publication PMC9482650, “Quantitative fragmentomics allow affinity mapping of interactomes” (Nature Communications, 2022):
# T1: CARD11, Q9BXL7
# T1 sequence (Q9BXL7 662-765, limits assumed, looked up): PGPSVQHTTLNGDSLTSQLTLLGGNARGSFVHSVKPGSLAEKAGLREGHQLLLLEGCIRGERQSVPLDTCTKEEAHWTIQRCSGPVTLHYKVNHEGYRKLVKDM
# T2: APBA1_2, Q02410
# T2 sequence (Q02410 742-832, limits assumed, looked up): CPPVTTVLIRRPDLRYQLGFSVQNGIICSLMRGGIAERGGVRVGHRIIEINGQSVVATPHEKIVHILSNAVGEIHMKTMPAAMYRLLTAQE
# T3: MPDZ_12, O75970
# T3 sequence (O75970 1857-1958, limits assumed, looked up): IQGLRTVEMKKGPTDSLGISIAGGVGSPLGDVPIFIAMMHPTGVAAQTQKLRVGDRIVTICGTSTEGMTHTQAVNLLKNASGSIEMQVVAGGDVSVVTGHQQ
# T4: NHERF3_4, Q5T2W1
# T4 sequence (Q5T2W1 373-468, limits assumed, looked up): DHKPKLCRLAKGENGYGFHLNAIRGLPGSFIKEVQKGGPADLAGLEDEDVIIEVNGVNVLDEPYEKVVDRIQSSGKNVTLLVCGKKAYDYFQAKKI
# T5: LIN7A, O14910
# T5 sequence (O14910 103-200, limits assumed, looked up): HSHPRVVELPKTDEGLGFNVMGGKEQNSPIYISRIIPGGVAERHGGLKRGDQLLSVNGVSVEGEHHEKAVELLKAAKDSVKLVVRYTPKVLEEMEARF
# T6: SHANK1, Q9Y566
# T6 sequence (Q9Y566 658-767, limits assumed, looked up): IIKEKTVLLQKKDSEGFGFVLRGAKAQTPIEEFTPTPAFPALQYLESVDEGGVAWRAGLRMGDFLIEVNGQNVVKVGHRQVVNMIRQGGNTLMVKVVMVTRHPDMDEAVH
# T7: LNX2_3, Q8N448
# T7 sequence (Q8N448 463-564, limits assumed, looked up): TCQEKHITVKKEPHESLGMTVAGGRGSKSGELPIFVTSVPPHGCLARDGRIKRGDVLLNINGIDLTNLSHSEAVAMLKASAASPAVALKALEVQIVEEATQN
# T8: PDZD2_2, O15018
# T8 sequence (O15018 329-429, limits assumed, looked up): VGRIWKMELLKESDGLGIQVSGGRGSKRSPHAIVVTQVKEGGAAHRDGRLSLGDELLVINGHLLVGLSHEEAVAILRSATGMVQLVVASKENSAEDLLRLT
# T9: RAPGEF6, Q8TEU7
# T9 sequence (Q8TEU7 525-625, limits assumed, looked up): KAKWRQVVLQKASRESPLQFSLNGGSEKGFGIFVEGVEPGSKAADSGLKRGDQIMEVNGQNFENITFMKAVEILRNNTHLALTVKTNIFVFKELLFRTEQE
# B1: JAM3, Q9BX67 (peptide)
# chain: DFRHKSSFVI
# B2: UQCRC2, P22695 (peptide)
# chain: LGHTPFVDEL
# Molecular target: PARD3_3, Q8TEW0
# Sequence (Q8TEW0 582-685): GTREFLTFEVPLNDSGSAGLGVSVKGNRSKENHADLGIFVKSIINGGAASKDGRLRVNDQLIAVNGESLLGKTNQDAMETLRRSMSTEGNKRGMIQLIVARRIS
# Assay: holdup assay
# Parameters: key: below the threshold = too weak to quantify, mostly under pKd 3.1 to 4
# Conditions: plain residues with an end cap or a label only (N-terminal biotin on a linker: ado-ado)
row,pKd,Binder
1,3.94,B1
2,below the threshold,B2

# Molecular target: T1, CARD11, Q9BXL7
# Assay: holdup assay
# Parameters: key: below the threshold = too weak to quantify, mostly under pKd 3.1 to 4
# Conditions: plain residues with an end cap or a label only (N-terminal biotin on a linker: ado-ado)
row,pKd,Binder
1,below the threshold,B1
2,3.53,B2

# Molecular target: GRIP2_6, Q9C0E4
# Sequence (Q9C0E4 648-740): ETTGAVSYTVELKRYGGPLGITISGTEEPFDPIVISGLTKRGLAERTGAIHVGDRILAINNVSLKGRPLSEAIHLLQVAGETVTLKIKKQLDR
# Assay: holdup assay
# Parameters: key: below the threshold = too weak to quantify, mostly under pKd 3.1 to 4
# Conditions: plain residues with an end cap or a label only (N-terminal biotin on a linker: ado-ado)
row,pKd,Binder
1,4.05,B1
2,below the threshold,B2

# Molecular target: GRASP, Q7Z6J2
# Sequence (Q7Z6J2 96-193): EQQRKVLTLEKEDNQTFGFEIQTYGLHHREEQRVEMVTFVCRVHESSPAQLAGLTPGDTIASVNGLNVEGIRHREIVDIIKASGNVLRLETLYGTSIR
# Assay: holdup assay
# Parameters: key: below the threshold = too weak to quantify, mostly under pKd 3.1 to 4
# Conditions: plain residues with an end cap or a label only (N-terminal biotin on a linker: ado-ado)
row,pKd,Binder
1,below the threshold,B1
2,3.85,B2

# Molecular target: NHERF4_1, Q86UT5-2
# Sequence (Q86UT5 other isoform, or with tags, fused parts or gaps): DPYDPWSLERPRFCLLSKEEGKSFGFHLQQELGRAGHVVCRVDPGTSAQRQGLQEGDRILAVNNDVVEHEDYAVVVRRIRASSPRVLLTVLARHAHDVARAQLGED
# Assay: holdup assay
# Parameters: key: below the threshold = too weak to quantify, mostly under pKd 3.1 to 4
# Conditions: plain residues with an end cap or a label only (N-terminal biotin on a linker: ado-ado)
row,pKd,Binder
1,below the threshold,B1
2,4.2,B2

# Molecular target: IL16_4, Q14005
# Sequence (Q14005 1229-1329): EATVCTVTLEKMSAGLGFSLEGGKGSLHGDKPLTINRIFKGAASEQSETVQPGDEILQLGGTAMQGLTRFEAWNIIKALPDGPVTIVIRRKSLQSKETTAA
# Assay: holdup assay
# Parameters: key: below the threshold = too weak to quantify, mostly under pKd 3.1 to 4
# Conditions: plain residues with an end cap or a label only (N-terminal biotin on a linker: ado-ado)
row,pKd,Binder
1,below the threshold,B1
2,3.59,B2

# Molecular target: Inadl_8, Q8NI35
# Sequence (Q8NI35 1425-1530): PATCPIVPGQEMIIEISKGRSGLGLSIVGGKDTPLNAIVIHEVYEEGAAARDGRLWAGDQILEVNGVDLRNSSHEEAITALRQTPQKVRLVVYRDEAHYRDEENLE
# Assay: holdup assay
# Parameters: key: below the threshold = too weak to quantify, mostly under pKd 3.1 to 4
# Conditions: plain residues with an end cap or a label only (N-terminal biotin on a linker: ado-ado)
row,pKd,Binder
1,below the threshold,B1
2,below the threshold,B2

# Molecular target: T2, APBA1_2, Q02410
# Assay: holdup assay
# Parameters: key: below the threshold = too weak to quantify, mostly under pKd 3.1 to 4
# Conditions: plain residues with an end cap or a label only (N-terminal biotin on a linker: ado-ado)
row,pKd,Binder
1,below the threshold,B1
2,3.75,B2

# Molecular target: LNX1_3, Q8TBB1
# Sequence (Q8TBB1 500-596): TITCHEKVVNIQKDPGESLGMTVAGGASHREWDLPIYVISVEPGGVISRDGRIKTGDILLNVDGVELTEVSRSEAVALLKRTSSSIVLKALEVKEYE
# Assay: holdup assay
# Parameters: key: below the threshold = too weak to quantify, mostly under pKd 3.1 to 4
# Conditions: plain residues with an end cap or a label only (N-terminal biotin on a linker: ado-ado)
row,pKd,Binder
1,below the threshold,B1
2,below the threshold,B2

# Molecular target: T3, MPDZ_12, O75970
# Assay: holdup assay
# Parameters: key: below the threshold = too weak to quantify, mostly under pKd 3.1 to 4
# Conditions: plain residues with an end cap or a label only (N-terminal biotin on a linker: ado-ado)
row,pKd,Binder
1,3.49,B1
2,below the threshold,B2

# Molecular target: T4, NHERF3_4, Q5T2W1
# Assay: holdup assay
# Parameters: key: below the threshold = too weak to quantify, mostly under pKd 3.1 to 4
# Conditions: plain residues with an end cap or a label only (N-terminal biotin on a linker: ado-ado)
row,pKd,Binder
1,below the threshold,B1
2,below the threshold,B2

# Molecular target: SNX27, Q96L92
# Assay: holdup assay
# Parameters: key: below the threshold = too weak to quantify, mostly under pKd 3.1 to 4
# Conditions: plain residues with an end cap or a label only (N-terminal biotin on a linker: ado-ado)
row,pKd,Binder
1,below the threshold,B1
2,3.99,B2

# Molecular target: LIMK2, P53671
# Sequence (P53671 143-248): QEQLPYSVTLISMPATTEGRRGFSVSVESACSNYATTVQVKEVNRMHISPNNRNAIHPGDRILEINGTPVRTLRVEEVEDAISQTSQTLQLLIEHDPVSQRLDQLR
# Assay: holdup assay
# Parameters: key: below the threshold = too weak to quantify, mostly under pKd 3.1 to 4
# Conditions: plain residues with an end cap or a label only (N-terminal biotin on a linker: ado-ado)
row,pKd,Binder
1,below the threshold,B1
2,below the threshold,B2

# Molecular target: MAGI1_1, Q96QZ7
# Sequence (Q96QZ7 1-106): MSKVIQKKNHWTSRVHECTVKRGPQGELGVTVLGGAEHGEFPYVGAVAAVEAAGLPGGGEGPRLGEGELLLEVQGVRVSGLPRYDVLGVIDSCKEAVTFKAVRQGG
# Assay: holdup assay
# Parameters: key: below the threshold = too weak to quantify, mostly under pKd 3.1 to 4
# Conditions: plain residues with an end cap or a label only (N-terminal biotin on a linker: ado-ado)
row,pKd,Binder
1,below the threshold,B1
2,below the threshold,B2

# Molecular target: Inadl_3, Q8NI35
# Sequence (Q8NI35 359-469): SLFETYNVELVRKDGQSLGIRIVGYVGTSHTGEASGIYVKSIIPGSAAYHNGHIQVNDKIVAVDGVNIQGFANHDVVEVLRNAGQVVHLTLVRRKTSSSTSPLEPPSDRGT
# Assay: holdup assay
# Parameters: key: below the threshold = too weak to quantify, mostly under pKd 3.1 to 4
# Conditions: plain residues with an end cap or a label only (N-terminal biotin on a linker: ado-ado)
row,pKd,Binder
1,4.26,B1
2,3.59,B2

# Molecular target: DLG4_3, P78352
# Sequence (P78352 306-403): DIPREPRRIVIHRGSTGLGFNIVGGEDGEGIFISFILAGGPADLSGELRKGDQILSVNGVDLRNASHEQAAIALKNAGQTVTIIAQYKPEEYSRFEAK
# Assay: holdup assay
# Parameters: key: below the threshold = too weak to quantify, mostly under pKd 3.1 to 4
# Conditions: plain residues with an end cap or a label only (N-terminal biotin on a linker: ado-ado)
row,pKd,Binder
1,below the threshold,B1
2,below the threshold,B2

# Molecular target: T5, LIN7A, O14910
# Assay: holdup assay
# Parameters: key: below the threshold = too weak to quantify, mostly under pKd 3.1 to 4
# Conditions: plain residues with an end cap or a label only (N-terminal biotin on a linker: ado-ado)
row,pKd,Binder
1,below the threshold,B1
2,3.53,B2

# Molecular target: Inadl_9, Q8NI35
# Sequence (Q8NI35 1530-1615): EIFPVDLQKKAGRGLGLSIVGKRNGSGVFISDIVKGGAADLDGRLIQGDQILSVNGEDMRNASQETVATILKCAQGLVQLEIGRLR
# Assay: holdup assay
# Parameters: key: below the threshold = too weak to quantify, mostly under pKd 3.1 to 4
# Conditions: plain residues with an end cap or a label only (N-terminal biotin on a linker: ado-ado)
row,pKd,Binder
1,below the threshold,B1
2,below the threshold,B2

# Molecular target: GRIP2_4, Q9C0E4
# Sequence (Q9C0E4 446-548): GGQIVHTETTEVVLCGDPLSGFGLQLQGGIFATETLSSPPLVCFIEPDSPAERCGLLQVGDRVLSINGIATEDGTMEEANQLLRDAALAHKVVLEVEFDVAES
# Assay: holdup assay
# Parameters: key: below the threshold = too weak to quantify, mostly under pKd 3.1 to 4
# Conditions: plain residues with an end cap or a label only (N-terminal biotin on a linker: ado-ado)
row,pKd,Binder
1,below the threshold,B1
2,below the threshold,B2

# Molecular target: T6, SHANK1, Q9Y566
# Assay: holdup assay
# Parameters: key: below the threshold = too weak to quantify, mostly under pKd 3.1 to 4
# Conditions: plain residues with an end cap or a label only (N-terminal biotin on a linker: ado-ado)
row,pKd,Binder
1,below the threshold,B1
2,below the threshold,B2

# Molecular target: NHERF2_2, Q15599
# Sequence (Q15599 142-238): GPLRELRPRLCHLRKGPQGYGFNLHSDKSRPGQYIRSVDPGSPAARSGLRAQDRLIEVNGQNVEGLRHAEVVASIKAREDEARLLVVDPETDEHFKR
# Assay: holdup assay
# Parameters: key: below the threshold = too weak to quantify, mostly under pKd 3.1 to 4
# Conditions: plain residues with an end cap or a label only (N-terminal biotin on a linker: ado-ado)
row,pKd,Binder
1,below the threshold,B1
2,4.34,B2

# Molecular target: HTRA2, O43464
# Sequence (O43464 355-458): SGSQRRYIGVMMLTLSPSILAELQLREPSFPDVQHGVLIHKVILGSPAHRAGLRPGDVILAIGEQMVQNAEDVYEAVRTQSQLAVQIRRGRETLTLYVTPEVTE
# Assay: holdup assay
# Parameters: key: below the threshold = too weak to quantify, mostly under pKd 3.1 to 4
# Conditions: plain residues with an end cap or a label only (N-terminal biotin on a linker: ado-ado)
row,pKd,Binder
1,below the threshold,B1
2,below the threshold,B2

# Molecular target: T7, LNX2_3, Q8N448
# Assay: holdup assay
# Parameters: key: below the threshold = too weak to quantify, mostly under pKd 3.1 to 4
# Conditions: plain residues with an end cap or a label only (N-terminal biotin on a linker: ado-ado)
row,pKd,Binder
1,below the threshold,B1
2,below the threshold,B2

# Molecular target: T8, PDZD2_2, O15018
# Assay: holdup assay
# Parameters: key: below the threshold = too weak to quantify, mostly under pKd 3.1 to 4
# Conditions: plain residues with an end cap or a label only (N-terminal biotin on a linker: ado-ado)
row,pKd,Binder
1,below the threshold,B1
2,below the threshold,B2

# Molecular target: T9, RAPGEF6, Q8TEU7
# Assay: holdup assay
# Parameters: key: below the threshold = too weak to quantify, mostly under pKd 3.1 to 4
# Conditions: plain residues with an end cap or a label only (N-terminal biotin on a linker: ado-ado)
row,pKd,Binder
1,below the threshold,B1
2,below the threshold,B2

# Molecular target: TJP2_1, Q9UDY2
# Sequence (Q9UDY2 24-128): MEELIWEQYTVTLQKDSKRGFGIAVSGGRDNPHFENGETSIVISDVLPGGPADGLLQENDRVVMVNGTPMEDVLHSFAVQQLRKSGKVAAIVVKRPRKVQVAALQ
# Assay: holdup assay
# Parameters: key: below the threshold = too weak to quantify, mostly under pKd 3.1 to 4
# Conditions: plain residues with an end cap or a label only (N-terminal biotin on a linker: ado-ado)
row,pKd,Binder
1,below the threshold,B1
2,below the threshold,B2

# Molecular target: SCRIB_1, Q14160
# Sequence (Q14160 718-814): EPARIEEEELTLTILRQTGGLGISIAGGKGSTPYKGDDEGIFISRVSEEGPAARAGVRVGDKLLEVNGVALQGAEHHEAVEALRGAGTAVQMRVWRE
# Assay: holdup assay
# Parameters: key: below the threshold = too weak to quantify, mostly under pKd 3.1 to 4
# Conditions: plain residues with an end cap or a label only (N-terminal biotin on a linker: ado-ado)
row,pKd,Binder
1,below the threshold,B1
2,below the threshold,B2

# Molecular target: MAGI2_2, Q86UL8
# Sequence (Q86UL8 410-522): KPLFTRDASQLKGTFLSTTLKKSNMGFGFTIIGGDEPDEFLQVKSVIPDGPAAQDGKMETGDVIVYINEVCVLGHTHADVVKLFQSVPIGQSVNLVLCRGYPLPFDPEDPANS
# Assay: holdup assay
# Parameters: key: below the threshold = too weak to quantify, mostly under pKd 3.1 to 4
# Conditions: plain residues with an end cap or a label only (N-terminal biotin on a linker: ado-ado)
row,pKd,Binder
1,below the threshold,B1
2,below the threshold,B2

# Molecular target: DLG5_1, Q8TDM6
# Sequence (Q8TDM6 617-713): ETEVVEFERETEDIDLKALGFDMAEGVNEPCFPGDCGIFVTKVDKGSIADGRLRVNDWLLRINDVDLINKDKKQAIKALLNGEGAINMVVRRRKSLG
# Assay: holdup assay
# Parameters: key: below the threshold = too weak to quantify, mostly under pKd 3.1 to 4
# Conditions: plain residues with an end cap or a label only (N-terminal biotin on a linker: ado-ado)
row,pKd,Binder
1,below the threshold,B1
2,below the threshold,B2
